Substitutions are numbered along the chain they refer to.
B1: MYT12390 (antibody, V domains shown)
VH: QVQLVQSGAEVKKPGASVKVSCKASGYTFTTAGMQWVRQAPGQGLEWMGWINTHSGVPKYAEDFKGRVTISADTSTSTAYLQLSSLKSEDTAVYYCARSGFGSSYWYFDVWGQGTLVTVSS
VL: DIQMTQSPSSLSASVGDRVTITCKASQHVSTAVAWYQQKPGKAPKLLIYSASYRYTGVPSRFSGSGSGTDFTLTISSLQPEDFAVYYCHQHYITPLTFGQGTKLEIK
notes: datopotamab VL 28, 89 substituted
B2: MYT12391 (antibody, V domains shown)
VH: B1 VH
VL: B1 VL with H89Q, Y92H
notes: datopotamab VL 28, 92 substituted
B3: MYT12394 (antibody, V domains shown)
VH: B1 VH
VL: B1 VL with H28D, A51H, H89Q, Y92H
notes: datopotamab VL 51, 92 substituted
B4: MYT12396 (antibody, V domains shown)
VH: B1 VH
VL: B1 VL with H28D, S52H, H89Q, Y92H
notes: datopotamab VL 52, 92 substituted
B5: MYT12397 (antibody, V domains shown)
VH: B1 VH
VL: B1 VL with H28D, Y92H
notes: datopotamab VL 89, 92 substituted
B6: MYT12400 (antibody, V domains shown)
VH: B1 VH
VL: B1 VL with A51H, H89Q, Y92H
notes: datopotamab VL 28, 51, 92 substituted
B7: MYT12401 (antibody, V domains shown)
VH: B1 VH
VL: B1 VL with S52H
notes: datopotamab VL 28, 52, 89 substituted
B8: MYT12402 (antibody, V domains shown)
VH: B1 VH
VL: B1 VL with S52H, H89Q, Y92H
notes: datopotamab VL 28, 52, 92 substituted
B9: MYT12403 (antibody, V domains shown)
VH: B1 VH
VL: B1 VL with Y92H
notes: datopotamab VL 28, 89, 92 substituted
B10: MYT13262 (antibody, V domains shown)
VH: B1 VH with F101H
VL: B1 VL with H28D, S52H, H89Q
notes: Full-length IgG from Expi293 supernatant; also called datopotamab heavy chain and light chain pairing variant
B11: MYT13269 (antibody, V domains shown)
VH: B1 VH with R98H
VL: B1 VL with H28D, H89Q, Q90H
notes: as for B10
B12: MYT13270 (antibody, V domains shown)
VH: B1 VH with F101H
VL: B1 VL with H28D, H89Q, Q90H
notes: as for B10
B13: MYT13271 (antibody, V domains shown)
VH: B1 VH with S104H
VL: B1 VL with H28D, H89Q, Q90H
notes: as for B10
B14: MYT13280 (antibody, V domains shown)
VH: QVQLQESGPGLVKPSETLSLTCTVSGGSISSYGVHWIRQPPGKGLEWIGVIWTSGVTDYNSALMGRVTISVDTSKNQFSLKLSSVTAADTAVYYCARDGDYDRYTHDYWGQGTLVTVSS
VL: DIVMTQSPDSLAVSLGERATINCRASKSVSTSGYSYMHWYQQKPGQPPKLLIYLASNLHSGVPDRFSGSGSGTDFTLTISSLQAEDVAVYYCQHSRELPYTFGQGTKLEIK
notes: Full-length IgG from Expi293 supernatant; also called hu7E6SVG heavy chain and light chain pairing variant
B15: MYT13304 (antibody, V domains shown)
VH: B14 VH with R103H, H106M
VL: B14 VL with H59E, T101H
notes: as for B14
B16: MYT13408 (antibody, V domains shown)
VH: QVQLQQSGSELKKPGASVKVSCKASGYTFTNYGMNWVKQAPGQGLKWMGWINTYTGEPTHTDDFKGRFAFSLDTSVSTAYLQISSLKADDTAVYFCARGGFGSSYWYFDVWGQGSLVTVSS
VL: B1 VL with M4L, T20S, H28D, T31I, A51H, S52H, S60D, H89Q, Q100A, L104V
notes: Sacituzumab HC-LC pairing variant
B17: MYT13409 (antibody, V domains shown)
VH: B16 VH with H60Y, D62H
VL: B1 VL with M4L, T20S, H28D, T31I, A51H, S52H, S60D, H89Q, Q100A, L104V
notes: as for B16
B18: MYT13410 (antibody, V domains shown)
VH: B16 VH with H60Y, D63H
VL: B1 VL with M4L, T20S, H28D, T31I, A51H, S52H, S60D, H89Q, Q100A, L104V
notes: as for B16
B19: MYT13411 (antibody, V domains shown)
VH: B16 VH with H60Y, F64H
VL: B1 VL with M4L, T20S, H28D, T31I, A51H, S52H, S60D, H89Q, Q100A, L104V
notes: as for B16
B20: MYT13412 (antibody, V domains shown)
VH: B16 VH with H60Y, K65H
VL: B1 VL with M4L, T20S, H28D, T31I, A51H, S52H, S60D, H89Q, Q100A, L104V
notes: as for B16
B21: MYT13414 (antibody, V domains shown)
VH: B16 VH with Y32H, H60Y
VL: B1 VL with M4L, T20S, H28D, S30H, T31I, A51H, S60D, Q100A, L104V
notes: as for B16
B22: MYT13423 (antibody, V domains shown)
VH: B16 VH with G33H, H60Y
VL: DIQLTQSPSSLSASVGDRVSITCKASQDVHIAVAWYQQKPGKAPKLLIYSHSYRYTGVPDRFSGSGSGTDFTLTISSLQPEDFAVYYCQQHYHTPLTFGAGTKVEIK
notes: as for B16
B23: MYT13430 (antibody, V domains shown)
VH: B16 VH with Y32H, H60Y
VL: B22 VL with H30S, Y53H
notes: as for B16
B24: MYT13436 (antibody, V domains shown)
VH: B16 VH with H60Y, K65H
VL: B22 VL with H30S, Y53H
notes: as for B16

Each binder was assayed against T1, Human TROP2 Protein, His Tag (Acro Biosystems) (human, UniProt P09758 27-274) (assay: BLI (Octet)).
T1 construct: not shown: His tag
T1 sequence (looked up): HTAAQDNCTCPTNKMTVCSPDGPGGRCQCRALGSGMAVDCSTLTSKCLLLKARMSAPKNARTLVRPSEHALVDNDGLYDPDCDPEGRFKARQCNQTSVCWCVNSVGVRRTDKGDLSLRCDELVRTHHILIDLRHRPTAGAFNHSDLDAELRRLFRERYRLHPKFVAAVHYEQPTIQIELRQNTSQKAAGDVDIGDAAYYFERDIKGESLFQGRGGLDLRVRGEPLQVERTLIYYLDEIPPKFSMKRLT
B1: no binding (tested: 50 nM).
B2: no binding (tested: 50 nM).
B3: no binding (tested: 50 nM).
B4: no binding (tested: 50 nM).
B5: no binding (tested: 50 nM).
B6: no binding (tested: 50 nM).
B7: no binding (tested: 50 nM).
B8: no binding (tested: 50 nM).
B9: no binding (tested: 50 nM).

These binders were tested against T2, Human TROP2 Protein, His Tag (Acro Biosystems) (human, UniProt P09758 27-274) (assay: BLI (Octet)).
T2 construct: not shown: His tag
T2 sequence (looked up): T1 sequence (looked up)
B10: binds.
B11: binds.
B12: binds.
B13: binds.
B14: binds.
B15: binds.

What follows are binders tested against T3, Human TROP2 Protein, His Tag (Acro Biosystems) (human, UniProt P09758 27-274) (assay: BLI (Octet) [2/2]).
T3 construct: also called TACSTD2; not shown: His tag
T3 sequence (looked up): T1 sequence (looked up)
B16: binds.
B17: binds.
B18: binds.
B19: binds.
B20: binds.
B21: binds.
B22: binds.
B23: binds.
B24: binds.

— patent publication US20260274985A1 (MYTHIC THERAPEUTICS, published 2026)
